One series relates to B4 deaminase. The settings on record: 5mC at position 17; solid support, overnight.
In series [1] the test system is T1, B5 deaminase.
T1 sequence: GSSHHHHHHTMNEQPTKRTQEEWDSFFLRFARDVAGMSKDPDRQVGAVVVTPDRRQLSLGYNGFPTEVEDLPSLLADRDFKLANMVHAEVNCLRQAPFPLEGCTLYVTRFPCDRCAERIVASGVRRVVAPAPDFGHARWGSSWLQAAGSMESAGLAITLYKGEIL
The settings on record: Zn, 2-3 h.

In series [2] the test system is T2, E10 deaminase.
T2 sequence: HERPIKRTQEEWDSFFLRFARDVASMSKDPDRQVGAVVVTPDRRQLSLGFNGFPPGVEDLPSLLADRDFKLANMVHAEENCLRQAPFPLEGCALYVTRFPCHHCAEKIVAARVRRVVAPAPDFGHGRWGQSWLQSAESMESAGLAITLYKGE
The settings on record: 2-3 h.

Series [3] has as its system T3, F7 deaminase.
T3 sequence: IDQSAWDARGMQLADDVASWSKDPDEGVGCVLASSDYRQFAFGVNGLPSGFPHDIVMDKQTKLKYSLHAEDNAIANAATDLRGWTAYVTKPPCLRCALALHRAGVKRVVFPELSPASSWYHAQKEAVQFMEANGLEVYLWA
The settings on record: Zn, 2-3 h.

Series [4] concerns T4, PBCV-1 deaminase (Paramecium bursaria chlorella virus 1?).
T4 sequence: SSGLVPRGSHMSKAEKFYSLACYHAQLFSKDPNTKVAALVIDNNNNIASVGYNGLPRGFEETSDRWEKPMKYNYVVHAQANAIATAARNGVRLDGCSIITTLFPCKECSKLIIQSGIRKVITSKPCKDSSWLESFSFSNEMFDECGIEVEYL
The conditions noted are these: overnight.

In series [5] the test system is T1, B5 deaminase.
The test system of series [6] is T1, B5 deaminase. The settings on record: 30 C 12 h, 6 uM enzyme.
The test system of series [7] is T1, B5 deaminase. The settings on record: all C replaced by 5mC; most preferred motif ATCAA; least GGCCC 22.51%.
The subject of series [8] is T2, E10 deaminase. The conditions noted are these: all C replaced by 5mC; most preferred motif ATCAA; least GGCGC 11.58%.
In series [9] the test system is T3, F7 deaminase. The conditions noted are these: all C replaced by 5mC; most preferred motif GTCAG; least GGCCG 5.51%.
The subject of a further series is T5, G12 deaminase.
T5 sequence: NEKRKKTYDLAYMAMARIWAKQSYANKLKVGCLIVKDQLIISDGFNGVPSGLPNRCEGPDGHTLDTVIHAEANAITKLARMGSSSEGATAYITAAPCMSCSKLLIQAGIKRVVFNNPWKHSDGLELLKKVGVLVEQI
The conditions noted are these: all C replaced by 5mC; most preferred motif TACGG; least GCCCC 0.90%.

The test system of a further series is T6, H3 deaminase.
T6 sequence: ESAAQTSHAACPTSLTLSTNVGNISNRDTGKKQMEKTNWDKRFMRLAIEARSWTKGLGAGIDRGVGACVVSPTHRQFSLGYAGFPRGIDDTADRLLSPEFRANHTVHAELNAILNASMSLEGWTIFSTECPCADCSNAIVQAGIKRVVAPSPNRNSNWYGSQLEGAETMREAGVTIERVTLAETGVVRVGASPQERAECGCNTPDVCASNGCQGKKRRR
The conditions noted are these: all C replaced by 5mC; most preferred motif AACTT; least GGCCC 1.28%.

Series [10] concerns T1, B5 deaminase. The conditions noted are these: LC/MS.
A further series has as its target T7, PRW313.
T7 chain: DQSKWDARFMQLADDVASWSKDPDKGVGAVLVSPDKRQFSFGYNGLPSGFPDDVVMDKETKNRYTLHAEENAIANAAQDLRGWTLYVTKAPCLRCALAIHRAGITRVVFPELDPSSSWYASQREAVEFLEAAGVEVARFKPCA
Put plainly: 1 h. The settings on record: label: 5'-FAM.

The target in a further series is T8, PRW314.
T8 chain: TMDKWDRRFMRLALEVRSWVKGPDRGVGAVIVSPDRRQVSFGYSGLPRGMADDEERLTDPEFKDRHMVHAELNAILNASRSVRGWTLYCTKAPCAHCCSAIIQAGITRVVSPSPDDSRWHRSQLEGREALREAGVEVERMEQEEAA
The series can be described thus: 1 h. The settings on record: label: 5'-FAM.

For the next series, the target named is T9, PRW294.
T9 chain: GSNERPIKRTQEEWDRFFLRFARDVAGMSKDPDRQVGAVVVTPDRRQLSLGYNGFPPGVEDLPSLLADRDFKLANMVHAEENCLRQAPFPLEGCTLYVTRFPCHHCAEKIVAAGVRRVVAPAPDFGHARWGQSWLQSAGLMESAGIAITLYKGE
Put plainly: 1 h. The settings on record: label: 5'-FAM.

The next series addresses T10, PRW311.
T10 chain: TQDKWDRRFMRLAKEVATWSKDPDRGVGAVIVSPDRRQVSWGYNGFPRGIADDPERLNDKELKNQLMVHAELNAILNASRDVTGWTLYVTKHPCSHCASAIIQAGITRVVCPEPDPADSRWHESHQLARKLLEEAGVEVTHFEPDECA
The series can be described thus: 1 h. The conditions noted are these: label: 5'-FAM.

For a further series, the target named is T11, G10 deaminase.
T11 chain: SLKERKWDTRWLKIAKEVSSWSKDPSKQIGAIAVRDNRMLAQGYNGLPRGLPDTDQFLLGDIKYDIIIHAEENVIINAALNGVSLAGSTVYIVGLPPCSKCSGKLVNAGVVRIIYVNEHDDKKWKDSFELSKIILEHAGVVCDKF
Put plainly: solid support, overnight. The conditions noted are these: tags: immobilized on solid support; label: 5'-FAM.

A further series deals with T12, 206 deaminase.
T12 chain: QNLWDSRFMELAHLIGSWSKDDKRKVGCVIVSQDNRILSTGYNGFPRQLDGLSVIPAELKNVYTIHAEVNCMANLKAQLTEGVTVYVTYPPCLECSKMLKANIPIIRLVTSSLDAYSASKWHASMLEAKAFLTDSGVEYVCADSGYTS
Put plainly: solid support, overnight. The settings on record: tags: immobilized on solid support; label: 5'-FAM.

Another series has as its target T13, E12 deaminase.
T13 chain: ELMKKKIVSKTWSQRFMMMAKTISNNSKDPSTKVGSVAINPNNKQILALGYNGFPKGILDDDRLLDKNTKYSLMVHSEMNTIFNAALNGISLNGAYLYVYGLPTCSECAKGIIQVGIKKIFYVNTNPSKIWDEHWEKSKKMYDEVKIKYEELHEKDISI
Put plainly: solid support, overnight. The settings on record: tags: immobilized on solid support; label: 5'-FAM.

Another series concerns the target T14, 251 deaminase.
T14 chain: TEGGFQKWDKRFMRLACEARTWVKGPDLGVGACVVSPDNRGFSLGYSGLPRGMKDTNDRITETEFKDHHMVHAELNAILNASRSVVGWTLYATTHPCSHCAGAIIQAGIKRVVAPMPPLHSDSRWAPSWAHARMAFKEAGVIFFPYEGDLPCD
Put plainly: solid support, overnight. The settings on record: tags: immobilized on solid support; label: 5'-FAM.

A further series addresses T15, F12 deaminase.
T15 chain: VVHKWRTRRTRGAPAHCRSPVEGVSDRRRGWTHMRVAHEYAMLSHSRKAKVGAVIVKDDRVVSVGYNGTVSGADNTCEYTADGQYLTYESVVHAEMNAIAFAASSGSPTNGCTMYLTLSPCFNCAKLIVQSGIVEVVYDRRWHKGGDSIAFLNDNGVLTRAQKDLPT
The series can be described thus: solid support, overnight. The conditions noted are these: tags: immobilized on solid support; label: 5'-FAM.

In a further series the target is T16, H2 deaminase.
T16 chain: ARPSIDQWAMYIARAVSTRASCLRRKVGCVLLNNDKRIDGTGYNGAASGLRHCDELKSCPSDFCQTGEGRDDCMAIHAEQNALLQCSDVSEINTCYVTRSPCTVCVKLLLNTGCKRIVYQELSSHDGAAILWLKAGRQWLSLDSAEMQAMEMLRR
The series can be described thus: solid support, overnight. The conditions noted are these: tags: immobilized on solid support; label: 5'-FAM.

The target of a further series is T17, 252 deaminase.
T17 chain: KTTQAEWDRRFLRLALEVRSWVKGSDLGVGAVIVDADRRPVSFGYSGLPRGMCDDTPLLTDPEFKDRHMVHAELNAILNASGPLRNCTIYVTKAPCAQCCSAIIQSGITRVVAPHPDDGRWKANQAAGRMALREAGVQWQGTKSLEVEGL
The series can be described thus: solid support, overnight. The conditions noted are these: tags: immobilized on solid support; label: 5'-FAM.

Like-named read-outs stand apart in the source and are kept apart here.

In the case of “ATACACCGATGCAGAACTCATGGGCTTACGC [FAM 5mC oligo 1]”, the activity (% deamination) with B4 deaminase was 3; with B5 deaminase [1] (5mC at position 17, EcoRI/CE assay, 42 C, Bis-Tris pH 6.5, 36% in FIG. 7B and when on Ni beads), 74; in the series on E10 deaminase [2] (5mC at position 17, highest measured (6-7% in FIG. 7C/D)), 54; in the series on F7 deaminase [3] (5mC at position 17) it was 72; in series [4] (5mC at position 17, 42 C, Bis-Tris pH 6.5) it was 51.
“ATACACCGATGCAGAACTCATGGGCTTACGC [FAM C oligo 4]”: the activity (% deamination) came to 4 in the series on B5 deaminase [1], 3 in the series with E10 deaminase [2], 12 with F7 deaminase [3] and 7 in series [4].
In turn, T4 genomic DNA, denatured returned an activity (% deamination) in the series with B5 deaminase [5] (5gmC (glucosylated 5hmC), NaOH and heat denatured) of 6.
As to T4 genomic DNA, native, in the series on B5 deaminase [5] (5gmC (glucosylated 5hmC), not denatured), the activity (% deamination) amounted to 3.
T4gt genomic DNA, denatured returned an activity (% deamination) in the series with B5 deaminase [5] (all C replaced by 5hmC, NaOH and heat denatured) of 27.
With T4gt genomic DNA, native, in the series with B5 deaminase [5] (all C replaced by 5hmC, not denatured), the activity (% deamination) was determined as 9.
Consider “TGTCCGATAGACTCTACGCA [5hmC-oligo (Oligo 1)]”, for which the activity (% 5hmC to 5hmU) was determined as 100 with APOBEC (5hmC at position 14, unmodified C 100%) and 35 in the series with B5 deaminase [6] (5hmC at position 14, DpnII buffer, LC/MS, unmodified C 0.90%).
Regarding “TGTCCGATAGACTCTACGCA [5mC-oligo (Oligo 2)]”, the activity in the series on APOBEC (5mC at position 14, unmodified C 94.1%) is 100 % 5mC to T; in the series with B5 deaminase [6] (5mC at position 14, unmodified C 2.80%) it was 21.1 % 5mC to T.
As to XP12 genomic DNA, denatured, the activity (% deamination) was determined as 35 with B5 deaminase [5] (all C replaced by 5mC, NaOH and heat denatured); 74.6 with B5 deaminase [7]; 40.9 in the series with E10 deaminase [8]; 22 in the series with F7 deaminase [9]; 12.7 in the series on G12 deaminase; 11.3 with H3 deaminase.
Consider XP12 genomic DNA, native, for which the activity (% deamination) in the series on B5 deaminase [5] (all C replaced by 5mC, not denatured) was 4.
In the series with B5 deaminase [5] (NaOH and heat denatured), lambda genomic DNA, denatured displayed an activity (% deamination) of 6.
Molecule lambda genomic DNA, native yielded an activity (% deamination) in the series with B5 deaminase [5] (not denatured) of 3.
ssDNA oligo C (Table 6): in the series with B5 deaminase [10] (average), the activity (% deamination) worked out at 2.
In the case of ssDNA oligo with 5caC (Table 6), the activity (% deamination) in the series on B5 deaminase [10] (5caC) came out at 2.
ssDNA oligo with 5fC (Table 6) had an activity (% deamination) in the series on B5 deaminase [10] (5fC) of 2.
The molecule ssDNA oligo with 5gmC (Table 6) showed an activity (% deamination) in the series with B5 deaminase [10] (5gmC) of 2.
Consider ssDNA oligo with 5hmC (Table 6), for which the activity (% deamination) in the series with B5 deaminase [10] (5hmC) came to 36.
Turning to ssDNA oligo with 5mC (Table 6), the activity (% deamination) with B5 deaminase [10] (5mC) came to 53.
As to ATACACCGATGCAGAACTCATGGGCTTACGC (ssDNA, 5mC at position 17) [FAM 5mC oligo 1], the activity with PRW313 was determined as 90 % deamination; with PRW314, 90 % deamination; in the series with PRW294, 73 % deamination; in the series with PRW311, 69 % deamination; with G10 deaminase it was 4.5 % deamination; in the series with 206 deaminase it was 50 % deamination. For the same molecule, the activity was found to be 5 % deamination with E12 deaminase; 66 % deamination with 251 deaminase; 10 % deamination in the series with F12 deaminase; 7 % deamination in the series with H2 deaminase; 12 % deamination with 252 deaminase.
With ATACACCGATGCAGAACTCATGGGCTTACGC (ssDNA) [FAM C oligo 4], the activity in the series with PRW313 came out at 11 % deamination; with PRW314, 13 % deamination; in the series with G10 deaminase, 2.6 % deamination.

These data come from patent publication US20250115953, “Methylcytosine-Selective Deaminases and Uses Thereof” (New England Biolabs, Inc., published 2025).
